Source: patent US20030162229A1
Where no end group is shown, it is not given here. The star is where a group is joined. Biotin = O=C1N[C@H]2[C@H](CS[C@H]2CCCCC(=O)*)N1

These molecules were tested against antiserum As #128 (sheep polyclonal, raised to the alpha subunit of human inhibin, boosted with human recombinant 30-kDa inhibin) (assay: RIA, competition with iodinated inhibin).

| Molecule | ED50 [µM] |
| --- | --- |
| Biotin-SGSGAALPGTMRPLHVRT [biotinylated peptide #27 (Set 1) of the human (alpha)C subunit] | 2 |
| Biotin-SGSGGGCGLHIPPNLSLP [biotinylated peptide #18 (Set 1) of the human (alpha)C subunit] | 0.06 |
| Biotin-SGSGLHIPPNLSLPVPGA [biotinylated peptide #19 (Set 1) of the human (alpha)C subunit] | < 0.01 |
| Biotin-SGSGLQRPPEEPAAHANC [biotinylated peptide #7 (Set 1) of the human (alpha)C subunit] | 1.6 |
| Biotin-SGSGGTMRPLHVRTTSDG [biotinylated peptide #28 (Set 1) of the human (alpha)C subunit] | 0.625 |
| Biotin-SGSGPLHVRTTSDGGYSF [biotinylated peptide #29 (Set 1) of the human (alpha)C subunit] | 0.156 |
| Biotin-SGSGGAPPTPAQPYSLLP [biotinylated peptide #22 (Set 1) of the human (alpha)C subunit] | 0.156 |
| Biotin-SGSGRTTSDGGYSFKYET [biotinylated peptide #30 (Set 1) of the human (alpha)C subunit] | 0.6 |
| Biotin-SGSGWSPSALRLLQRPPE [biotinylated peptide #5 (Set 1) of the human (alpha)C subunit] | 3.8 |

These molecules were tested against antiserum As #41 (sheep polyclonal, raised to the alpha subunit of human inhibin) (assay: RIA, competition with iodinated inhibin).

| Molecule | ED50 [µM] |
| --- | --- |
| Biotin-SGSGAALPGTMRPLHVRT [biotinylated peptide #27 (Set 1) of the human (alpha)C subunit] | 5 |
| Biotin-SGSGGGCGLHIPPNLSLP [biotinylated peptide #18 (Set 1) of the human (alpha)C subunit] | 1.05 |
| Biotin-SGSGLHIPPNLSLPVPGA [biotinylated peptide #19 (Set 1) of the human (alpha)C subunit] | 2.1 |
| Biotin-SGSGLQRPPEEPAAHANC [biotinylated peptide #7 (Set 1) of the human (alpha)C subunit] | 1.25 |
| Biotin-SGSGGTMRPLHVRTTSDG [biotinylated peptide #28 (Set 1) of the human (alpha)C subunit] | 4 |
| Biotin-SGSGPLHVRTTSDGGYSF [biotinylated peptide #29 (Set 1) of the human (alpha)C subunit] | 5 |
| Biotin-SGSGGAPPTPAQPYSLLP [biotinylated peptide #22 (Set 1) of the human (alpha)C subunit] | 5 |
| Biotin-SGSGRTTSDGGYSFKYET [biotinylated peptide #30 (Set 1) of the human (alpha)C subunit] | 2.5 |
| Biotin-SGSGWSPSALRLLQRPPE [biotinylated peptide #5 (Set 1) of the human (alpha)C subunit] | 1.5e-05 |

Each molecule was assayed against rabbit antiserum #1989 (assay: RIA, competition with iodinated inhibin).

| Molecule | ED50 [µM] |
| --- | --- |
| Biotin-SGSGISFQELGWERWIVY [biotinylated peptide #12 (Set 1) of the human (alpha)C subunit] | > 2.5 |
| Biotin-SGSGVALNISFQELGWER [biotinylated peptide #11 (Set 1) of the human (alpha)C subunit] | > 2.5 |
| Biotin-SGSGVYPPSFIFHYCHGG [biotinylated peptide #15 (Set 1) of the human (alpha)C subunit] | > 2.5 |
| Biotin-SGSGAAHANCHRVALNIS [biotinylated peptide #9 (Set 1) of the human (alpha)C subunit] | > 2.5 |
| Biotin-SGSGAALPGTMRPLHVRT [biotinylated peptide #27 (Set 1) of the human (alpha)C subunit] | > 2.5 |
| Biotin-SGSGGGCGLHIPPNLSLP [biotinylated peptide #18 (Set 1) of the human (alpha)C subunit] | > 2.5 |
| Biotin-SGSGLHIPPNLSLPVPGA [biotinylated peptide #19 (Set 1) of the human (alpha)C subunit] | > 2.5 |
| Biotin-SGSGLQRPPEEPAAHANC [biotinylated peptide #7 (Set 1) of the human (alpha)C subunit] | > 2.5 |
| Biotin-SGSGGTMRPLHVRTTSDG [biotinylated peptide #28 (Set 1) of the human (alpha)C subunit] | > 2.5 |
| Biotin-SGSGPLHVRTTSDGGYSF [biotinylated peptide #29 (Set 1) of the human (alpha)C subunit] | > 2.5 |
| Biotin-SGSGELGWERWIVYPPSF [biotinylated peptide #13 (Set 1) of the human (alpha)C subunit] | > 2.5 |
| Biotin-SGSGSFIFHYCHGGCGLH (cysteine pairing not given here) [biotinylated peptide #16 (Set 1) of the human (alpha)C subunit] | > 2.5 |
| Biotin-SGSGNCHRVALNISFQEL [biotinylated peptide #10 (Set 1) of the human (alpha)C subunit] | > 2.5 |
| Biotin-SGSGGAPPTPAQPYSLLP [biotinylated peptide #22 (Set 1) of the human (alpha)C subunit] | > 2.5 |
| Biotin-SGSGRTTSDGGYSFKYET [biotinylated peptide #30 (Set 1) of the human (alpha)C subunit] | < 0.01 |
| Biotin-SGSGWSPSALRLLQRPPE [biotinylated peptide #5 (Set 1) of the human (alpha)C subunit] | > 2.5 |
| Biotin-SGSGERWIVYPPSFIFHY [biotinylated peptide #14 (Set 1) of the human (alpha)C subunit] | > 2.5 |

Each molecule was assayed against antiserum As #41 (sheep polyclonal, raised to the alpha subunit of human inhibin) (assay: competitive 2-site assay, peptides incubated with iodinated As #41).

| Molecule | % contribution (competition with inhibin) [%] |
| --- | --- |
| Biotin-SGSGRTTSDGGYSFKYET [biotinylated peptide #30 (Set 1) of the human (alpha)C subunit] | 50 |
| Biotin-SGSGWSPSALRLLQRPPE [biotinylated peptide #5 (Set 1) of the human (alpha)C subunit] | 50 |

Each molecule was assayed against human recombinant 30 kDa inhibin A (human) (UniProt P05111) (assay: RIA, iodinated human inhibin A tracer vs human recombinant inhibin A).
Sequence of UniProt P05111 (P05111 233-366, chain 1 of 2): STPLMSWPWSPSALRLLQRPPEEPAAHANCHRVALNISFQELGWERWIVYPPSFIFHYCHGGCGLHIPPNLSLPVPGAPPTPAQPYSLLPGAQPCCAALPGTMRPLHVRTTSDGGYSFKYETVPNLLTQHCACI
Sequence of UniProt P05111 (P08476 311-426, chain 2 of 2, further chain): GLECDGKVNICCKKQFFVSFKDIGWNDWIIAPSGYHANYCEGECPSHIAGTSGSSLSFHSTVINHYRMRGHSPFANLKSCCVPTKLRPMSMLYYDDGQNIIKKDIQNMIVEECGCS

| Molecule | ED25 (affinity for inhibin) [µM] |
| --- | --- |
| R1 monoclonal antibody (Groome), inhibin (alpha)C subunit | 0.0016 |
